The nature of the series: soluble on expression in E. coli; label from the status in PepcDB or PDB records.
With “MGSKVAGKKKTQNDNKLDNENGSQQRENINTKTLLKGNLKISNYKYLEVIQLEHAVTKLVESYNKIIELSPNLVAYNEAVNNQDRVPVQILPSLSRYQLKLAAELKTLHDLKKDAILTEITDYENEFDTEQKQPILQEISKADMEKLEKLEQVKREKREKIDVNVYENLNEKEDEEEDEGEDSYDPTKAGDIVKATKWPPKLPEIQDLAIRARVFIHKSTIKDKVYLSGSEMINAHNERLEFLGDSILNSVMTLIIYNKFPDYSEGQLSTLRMNLVSNEQIKQWSIMYNFHEKLKTNFDLKDENSNFQNGKLKLYADVFEAYIGGLMEDDPRNNLPKIRKWLRKLAKPVIEEATRNQVALEKTDKLDMNAKRQLYSLIGYASLRLHYVTVKKPTAVDPNSIVECRVGDGTVLGTGVGRNIKIAGIRAAENALRDKKMLDFYAKQRAAIPRSESVLKDPSQKNKKRKFSDTS”, the “soluble on expression in E. coli” value is listed as “soluble”. The result for “HEEHLMVPKGVEVYEINGPYFFGIATKFEEIMSELGDRPKVRIVRMRKVPFIDSTGIHNLTNLCEMSKKENIQIVLSGVNEKVHQILEKSGFNELLGKENICPNINVALEKAK” reads “not soluble”; that for “MTKAELRRRARAAWRRLDLKALSRAVGAALLPWLRERGFRHILLYHPLPHELNLLPLMEAYPARYYLPKVAGKGLTVHPFGPLAPGPFGLLEPTTPPEDPRVLDLVVVPGLAFDREGYRLGHGQGFYDRFLKEVRAATVGVVPQALLFPALPRDPWDVPVDHLATEAGVEAVKRPAPGPGGLLD”, “soluble”; that for “MNVEQQYIDLFSQTEAMICKHSAEVLNAPRAAAFADFERLGFPTRKMEKYKYTDISKYFEPDYGLNLNRLQIPVNPYEVFKCDVPNMSTALYFVVNDAFYNKALPKTHLPEGVIFGSLKEVAAEHPELVKKYYGKLADTSKDGITAFNTAFAQDGVIFYVPKNVIVEKPIQLVNILRADVNFMVNRRVLIILEDGAQARLLICDHAMDNVNFLATQVIEVFAGENAVFDMYELEETHTSTVRISNLYVKQEANSNVLLNGMTLHNGTTRNTTEVLLAGEGAEINLCGMAIADKNQHVDNNTSIDHAVPNCTSNELFKYVLDDQSTGAFAGLVLVRPDAQHTNSQQTNRNLCATRDARMYTQPQLEIYADDVKCSHGATVGQLDENALFYMRARGIAEKEARLLLMFAFVNEVIDTIRLDALKDRLHLLVEKRFRGELNKCQGCAICK”, “not soluble”. The same measure for “GQAQTQVKIISQKSDEINEAITRKIDRGSTLLHTETGYLHSRQNMILTVISNRELSKLNQLVMEIDPTAFMIIGKVNEVHGNGFTLPKKHAVKTEK”: “not soluble”. Regarding “SSTFSASDFNSERYSSSRPSYPSDFYKMIDEYHDGERKLLVDVGCGPGTATLQMAQELKPFEQIIGSDLSATMIKTAEVIKEGSPDTYKNVSFKISSSDDFKFLGADSVDKQKIDMITAVECAHWFDFEKFQRSAYANLRKDGTIAIWGYADPIFPDYPEFDDLMIEVPYGKQGLGPYWEQPGRSRLRNMLKDSHLDPELFHDIQVSYFCAEDVRDKVKLHQHTKKPLLIRKQVTLVEFADYVRTWSAYHQWKQDPKNKDKEDVADWFIKESLRRRPELSTNTKIEVVWNTFYKLGKRV”, the “soluble on expression in E. coli” value is reported as “soluble”. Regarding “MAVAANKRSVMTLFSSASDMYSHQVRIVLAEKGVSFEVELVDENNLPAELIELNPYKTVPTLVDRELALYDSKIIMEYLDERFPHPPLMPVYPVARGNSRLMIYRIERNWYSLAEKVVNGSPEVAENARNKLRNDLLTLGPVFAEFEYFMSEEFSLIDCYLAPLLWRLPVLGIDLIGPGSKELKVYMNRVFERDSFLASLTEAEREMRLAR”, the “soluble on expression in E. coli” value is recorded as “not soluble”. In the case of “MAHHHHHHMFHRHSFYEKGSSAPRDGAGAGADGTQAHGGAAGGSCNNGGTSSSSTASSQQQREQDERLYGMGSATAQQRRQVRQQWEKSFFGRLHYEEGMHDRFSEALKSEDAEAFRQSIAGQSHADLFPHWPEEEEAPLSEFKRLRPSLQLHYIVNRLSSGERRIRYSVDFGGLLMMPQLNLGEMMVKEADTLLRELGWMNDEVAMRIEEVQALASKIKFDFDLD”, the “soluble on expression in E. coli” value is “soluble”. The result for “MKVIIFGGSGFLGQQIAKILVQRQHQVISVSRHGKPATLSASWSHQVQWVCSDVTHDTNWQEQVQRADWVIDTVGILFENPRKKKTYQRLILTPVKKISSFLAQQKKPAKFLFISANTVPFPLRKYMDAKLAAEELIHQEVAEAVIFYPSLLVGQERTGTILFSKCIYFFKKIPFLKNLFIGYDPVPVAEMAQEIVHVLEGGNSIYTHRRTR” reads “not soluble”.

“MLRTYTVLLLIAHAHVQSHFYYPCSARIFWKIHALINNTDGFVTREVKLGYFIGYKEHRSSAERKANAHGFHGFFFSEITHTFSEMIESLEHANTGAFDDIRTDSETHFFDLDDAERMIERDSIERTNNLLENSRKFKNVRDETHRGKTRRGETHRGETHRGETHRDETHRGETHRDETHRGETHRGETHRGETHRGETHLDETHRGETHRGDTHRGETHRGETHRDDTFRGETLRGETHLDETHRGETHRDETHRGETHRDETHRDETHRDETHRGETHRGETHRGETHRDDTFRGETFRGETHRDETHRGETHRDETHRGETHRGETHRGETHRGETHRGETHRGETHRGETHRGETHRDETFRGETHRGETHRGETHRDDTHRGETHRGETHRGETHRGETHRGETHRGETHRGETHRGETHRGETHRGETHRGETHCDDTHRGETRRAETHRGETHRGETHRDETHRDDTHRGETHRGETHRGETHRGETHRGETHRDETHRGETHRGDTHRGETHRGETHRGETHRGETHRGETHRGETHRGETHRGETHRGETHRDDTHRGETRRAETHRGETHRGETHRDETHRGETHRGETHRGETHRGETHRGETHRDETHRDDTFRGETLRGETHRDETHRGETHRDDTFRGETLRGETHRDETHRGETHRDETHRGETHRGETHRGETHRGETHRGETHRGETHRGETLRGETRCDDTQRGETRRAETHRGETLRGETHRDESHRGETHRGETHRGETHRGETHRGETHRDETHRDDTFRGETLRGETHRDETHRGETHRDDTFRGETLRGETHLDETHRGETHRDETHRGETHRGETHRGETHRDETHRGETHRGETHRGETHRGETHRAETFRGETHRAETHRGETNRGETHRGETHRGETHRGETNRGETHRGETHRGETHRGDTHRAETHRDETHRGETNRDETHRGETHRGETHRGDTNRGETHRGETFRGETHRGETHRGETHRGETHRGETHRGETHRGETHRGETHRDDTFRGETHRGETHCGETHRGETHRGETLRGETLRGETHRDETHRGETLRDETHRGETLRGETHRGETLRGETHRGETHRDDTFRGETLRGETHLDETHRGETHRDETHRGETHRGETHRGETHRGETHRGETHRGETHRGETHRDETHRDDTFRGETLRGETLRDETHRGETHRDDTFRGETHRDETHRGETLRGETHRDETHRDETHRDDTHRGETLRGETHLDETHRGETHRDETHRGETHLDETHRGETHRDETHRGETHRDETHRGETHRGETHVWKARENSGMF”: the “soluble on expression in E. coli” value is recorded as “not soluble”. As for “MGSDKIHHHHHHMDALVRASGLRGYPALMRDLGCDPTPLLQRYHLDEGALGSDDAMISLRAVVHLLEASAEQTRTGDLGLRLSRHQSIDVLGPLSIALQNAPTIRAAMDFAARHTFVHSPGLVYAVHKHSEFANDAAEVSIEIRLSRQPAQRQTIDLCLADIHNFTRLLAGDRYLLRAVSVPHTPVVPVSTYERFFGARVWVEQPRASLHLSRSTLAADLLGVDATLRRIAEDYIFRHFGSEQGSVSDRVRQVLRQTLGTSSHSKATVADLLALHPRTMQRRLAAEATSFEAIRDDVRRELAMRYLCETSLPLGQISLLLGLPAQSALSRACRQWYGVPPSALRKHKRAAD”, the “soluble on expression in E. coli” value was “not soluble”. With “MSKLIEYDETARRAMEVGMDKLADTVRVTLGPRGRHVVLAKAFGGPTVTNDGVTVAREIELEDPFEDLGAQLVKSVATKTNDVAGDGTTTATILAQALIKGGLRLVAAGVNPIALGVGIGKAADAVSEALLASATPVSGKTGIAQVATVSSRDEQIGDLVGEAMSKVGHDGVVSVEESSTLGTELEFTEGIGFDKGFLSAYFVTDFDNQQAVLEDALILLHQDKISSLPDLLPLLEKVAGTGKPLLIVAEDVEGEALATLVVNAIRKTLKAVAVKGPYFGDRRKAFLEDLAVVTGGQVVNPDAGMVLREVGLEVLGSARRVVVSKDDTVIVDGGGTAEAVANRAKHLRAEIDKSDSDWDREKLGERLAKLAGGVAVIKVGAATETALKERKESVEDAVAAAKAAVEEGIVPGGGASLIHQARKALTELRASLTGDEVLGVDVFSEALAAPLFWIAANAGLDGSVVVNKVSELPAGHGLNVNTLSYGDLAADGVIDPVKVTRSAVLNASSVARMVLTTETVVVDKPAKAEDHDHHHGHAH”, the “soluble on expression in E. coli” value was “soluble”.

Values taken from the DeepSol protein solubility set.
